Test [1] has as its target T1, claudin 6 (CLDN6) protein (human, UniProt P56747 1-220).
T1 construct: also called human CLDN6 protein
T1 sequence: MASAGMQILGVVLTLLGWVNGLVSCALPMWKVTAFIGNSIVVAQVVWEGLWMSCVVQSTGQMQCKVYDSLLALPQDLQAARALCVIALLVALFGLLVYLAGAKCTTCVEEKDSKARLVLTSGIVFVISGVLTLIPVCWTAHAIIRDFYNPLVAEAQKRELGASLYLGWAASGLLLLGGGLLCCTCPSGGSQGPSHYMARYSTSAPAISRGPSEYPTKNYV
The test can be described thus: Western blot of extract of HEK293T cells expressing CLDN6. For orientation: In western blotting, separated proteins are transferred to a membrane and probed.

In test [2] the target is T2, antigen peptide having the amino acid sequence from the 208th position to the 220th position of the human … (human).
T2 construct: Coupled to KLH for immunisation
T2 peptide: SRGPSEYPTKNYV
The test can be described thus: ELISA of hybridoma culture supernatant on coated antigen peptide. The procedure: After 4 days of culture, the medium was exchanged with 100 μL of hybridoma medium. Positive clones were screened by ELISA using 50 μL of the culture supernatant 2 days after the exchange. The screening was performed by the following procedure.
First, the antigen peptide solution was diluted to 3 μg/mL, 100 μL was added to each well of a 96-well ELISA plate, and the mixture was allowed to stand overnight at 37° C. Then, the antigen peptide solution was removed from each well, the wells were washed with 200 μL of PBS, then a blocking solution (1% bovine serum albumin/PBS) was added, and the mixture was allowed to stand at 37° C. for 1 hour. Then, the blocking solution was removed from each well, the wells washed with 200 μL of PBS, 50 μL of culture supernatant was added, and the mixture was reacted at 37° C. for 1 hour. After removing the culture supernatant from each well, the wells were washed 3 times with 200 μL of PBS. […] After that, the secondary antibody solution was removed from each well, the wells were washed 3 times with PBS, and then the color was developed using TMB Substrate Set (BioLegend) with the method recommended by the manufacturer, and the absorbance was measured.

For another test, the target named is T3, CLDN1 (UniProt O95832 1-211, limits assumed).
T3 construct: whole, on cells; also called claudin 1
T3 sequence (looked up): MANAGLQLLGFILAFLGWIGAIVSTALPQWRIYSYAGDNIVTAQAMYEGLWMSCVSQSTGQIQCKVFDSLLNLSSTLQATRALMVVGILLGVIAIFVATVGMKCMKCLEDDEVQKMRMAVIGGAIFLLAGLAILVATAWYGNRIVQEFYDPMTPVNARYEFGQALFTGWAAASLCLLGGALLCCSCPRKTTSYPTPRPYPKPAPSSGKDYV
The experiment in a line: Western blot of extract of HEK293T cells expressing the claudin; undiluted culture supernatant. On the procedure:
(§1) 48 hours after the introduction of each gene, protein was extracted using a lysate in which the proteolytic enzyme inhibitor, Complete mini EDTA-free (Roche Diagnostics) was added to CelLytic™ MT Cell Lysis Reagent (Sigma-Aldrich) at a concentration of […]. SDS-PAGE, […], and antibody reaction were sequentially performed according to a standard protocol, chemiluminescence was performed by ECL™ Prime Western Blotting Detection reagent (GE Healthcare), and images were taken using CCD imager Image Quant LAS4000 (GE Healthcare). The primary antibody was reacted overnight at 4° C. using a culture supernatant stock solution of αCLDN6 #C6C15-1, and the secondary antibodies were reacted for 30 minutes using ECL™ Rat IgG, HRP-linked whole antibody (Sigma-Aldrich) diluted 2,000-fold with PBS, and ECL™ Rabbit IgG and HRP-linked whole antibody (Sigma-Aldrich) described in Table 1 diluted 5,000-fold with PBS, respectively.
(§2) In order to confirm the antigen specificity and cross-reactivity of the anti-CLDN6 monoclonal antibody (αCLDN6 #C6C15-1) produced in the Examples, Western blotting was performed for CLDN1, CLDN4, CLDN5, CLDN6, and CLDN9 for verification.

For another test, the target named is T4, CLDN4 (UniProt O14493 1-209, limits assumed).
T4 construct: whole, on cells; also called claudin 4
T4 sequence (looked up): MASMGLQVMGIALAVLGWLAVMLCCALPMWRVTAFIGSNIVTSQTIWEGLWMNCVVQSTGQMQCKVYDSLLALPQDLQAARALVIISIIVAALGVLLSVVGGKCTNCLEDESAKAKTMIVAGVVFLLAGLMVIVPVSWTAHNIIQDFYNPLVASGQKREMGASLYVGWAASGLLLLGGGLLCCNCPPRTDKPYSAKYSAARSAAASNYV
Described as above. The procedure:
as §1, §2

The next test concerns the target T5, CLDN5 (UniProt O00501 1-218, limits assumed).
T5 construct: whole, on cells; also called claudin 5
T5 sequence (looked up): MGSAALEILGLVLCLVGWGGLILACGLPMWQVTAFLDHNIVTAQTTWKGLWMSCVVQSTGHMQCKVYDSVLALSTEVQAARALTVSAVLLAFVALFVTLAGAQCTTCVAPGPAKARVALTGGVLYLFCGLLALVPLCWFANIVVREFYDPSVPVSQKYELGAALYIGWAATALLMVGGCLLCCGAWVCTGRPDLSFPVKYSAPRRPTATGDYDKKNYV
The test is described as above. On the procedure: as §1, §2

Another test concerns the target T6, CLDN9 (UniProt O95484 1-217, limits assumed).
T6 construct: whole, on cells; also called claudin 9
T6 sequence (looked up): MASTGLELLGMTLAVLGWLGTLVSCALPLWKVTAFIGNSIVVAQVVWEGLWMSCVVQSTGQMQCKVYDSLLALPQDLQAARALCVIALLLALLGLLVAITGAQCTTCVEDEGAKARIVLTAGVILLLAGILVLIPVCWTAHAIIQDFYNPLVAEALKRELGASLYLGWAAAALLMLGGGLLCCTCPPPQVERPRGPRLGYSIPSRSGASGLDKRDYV
The description is as above. On the procedure:
as §1, §2

B1: Rat αCLDN6 #C6C15-1 monoclonal antibody (antibody, V domains shown)
VH: EVKLVETGGGLVKPGGSLRLSCATSGFNFNDYFMNWVRQAPGKGLEWVAQIRNKNYNYATYYAESLEGRVTISRDDSKSSVYLQVSSLRAEDTAIYYCTRGAYWGQGVMVTVSS
VL: DIVMTQSPSFLSASVGERVTLSCRASQNINKYLDWYQQKLGEAPKLLIYDTNNLHAGIPSRFSGSGSGTDYTLTISSLQPEDVATYFCLQRNSWPYTFGAGTKLELK
notes: Rat hybridoma monoclonal antibody (detected with anti-rat IgG), used as undiluted culture supernatant; constant regions and isotype are not; also called αCLDN6 #C6C15-1 antibody; ACLDN6 #C6C15-1 antibody
Take B1: the binding result in test [1] is reported as “binds”; in test [2] it was “binds”; with CLDN1, “no binding”; with CLDN4, “no binding”; with CLDN5 it was “no binding”; in the test with CLDN9, “no binding”.

The values are drawn from patent publication US20220018842A1 (FUKUSHIMA MEDICAL UNIVERSITY, published 2022).
